Earlier results in paper PMC10298792.

Columns and labels:
Bid BH3 (Homo sapiens) = Bid BH3 (Homo sapiens) (UniProt P55957); assay: ITC
Pxt1 BH3 (Homo sapiens) = Pxt1 BH3 (Homo sapiens) (UniProt Q8NFP0); assay: ITC
Sequence of Pxt1 BH3 (Homo sapiens) (Q8NFP0 76-101): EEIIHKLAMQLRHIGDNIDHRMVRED

Sequence of Bcl-xL (Q07817 whole entry): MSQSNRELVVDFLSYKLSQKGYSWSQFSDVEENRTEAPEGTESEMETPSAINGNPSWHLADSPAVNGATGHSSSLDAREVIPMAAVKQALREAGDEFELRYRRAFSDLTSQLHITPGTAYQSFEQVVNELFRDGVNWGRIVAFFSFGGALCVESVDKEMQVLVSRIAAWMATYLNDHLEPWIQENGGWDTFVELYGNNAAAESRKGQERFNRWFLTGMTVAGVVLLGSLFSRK
Sequence of Bak (Q16611 2-211): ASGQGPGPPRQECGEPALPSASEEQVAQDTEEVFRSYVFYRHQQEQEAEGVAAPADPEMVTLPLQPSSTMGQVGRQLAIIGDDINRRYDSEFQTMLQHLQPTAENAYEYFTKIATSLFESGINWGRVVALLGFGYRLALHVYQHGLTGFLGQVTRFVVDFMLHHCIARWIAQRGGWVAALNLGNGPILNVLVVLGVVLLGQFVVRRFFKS

Substance	Kd (Bid BH3 (Homo sapiens))	Kd (Pxt1 BH3 (Homo sapiens))
Bak (from UniProt Q16611)	22700 nM	
Bcl-xL (from UniProt Q07817)	8.62 nM	233 nM
